Measured values reported in the supplement of paper PMC11316812.
± gives the standard deviation of the averaged measurements.

Legend:
hTERT-HMEC = assay: percentage of EdU-negative (G0-arrested) nuclei per well, 72 h; higher = more G0 arrest; details: reference: sequence is the full UniProt precursor, the tested protein was the secreted form or ectodomain
MCF7 = assay: as above; details: reference: sequence is the full UniProt precursor, the tested protein was the secreted form or ectodomain
[1] = protein concentration 0.0357143 µM
[2] = protein concentration 0.357143 µM
[3] = protein concentration 0.03125 µM
[4] = protein concentration 0.3125 µM
[5] = protein concentration 0.02179 µM
[6] = protein concentration 0.2179 µM
[7] = protein concentration 0.0225 µM
[8] = protein concentration 0.0105714 µM
[9] = protein concentration 0.105714 µM
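Note: secreted proteins added to cultured cells, EdU pulse at the end, nuclei found by Hoechst imaging, EdU status from nuclear versus surrounding ring intensity ratio, PBS as neutral control.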

MKLQCVSLWLLGTILILCSVDNHGLRRCLISTDMHHIEESFQEIKRAIQAKDTFPNVTILSTLETLQIIKPLDVCCVTKNLLAFYVDRVFKDHQEPNPKILRKISSIANSFLYMQKTLRQCQEQRQCHCRQEATNATRVIHDNYDQLEVHAAAIKSLGELDVFLAWINKNHEVMFSA [Q9UHD0]
percentage of EdU-negative (hTERT-HMEC; [1]): 5.09 ± 0.068%
percentage of EdU-negative (hTERT-HMEC; [2]): 6.97 ± 1.1%
percentage of EdU-negative (MCF7; [1]): 24.3 ± 3%
percentage of EdU-negative (MCF7; [2]): 27.41 ± 0.059%

MKSGLWYFFLFCLRIKVLTGEINGSANYEMFIFHNGGVQILCKYPDIVQQFKMQLLKGGQILCDLTKTKGSGNTVSIKSLKFCHSQLSNNSVSFFLYNLDHSHANYYFCNLSIFDPPPFKVTLTGGYLHIYESQLCCQLKFWLPIGCAAFVVVCILGCILICWLTKKKYSSSVHDPNGEYMFMRAVNTAKKSRLTDVTL [Q9Y6W8]
percentage of EdU-negative (hTERT-HMEC; [3]): 4.29 ± 0.34%
percentage of EdU-negative (hTERT-HMEC; [4]): 4.32 ± 0.26%
percentage of EdU-negative (MCF7; [3]): 25.2 ± 1.7%
percentage of EdU-negative (MCF7; [4]): 25.9 ± 0.78%

MDGWRRMPRWGLLLLLWGSCTFGLPTDTTTFKRIFLKRMPSIRESLKERGVDMARLGPEWSQPMKRLTLGNTTSSVILTNYMDTQYYGEIGIGTPPQTFKVVFDTGSSNVWVPSSKCSRLYTACVYHKLFDASDSSSYKHNGTELTLRYSTGTVSGFLSQDIITVGGITVTQMFGEVTEMPALPFMLAEFDGVVGMGFIEQAIGRVTPIFDNIISQGVLKEDVFSFYYNRDSENSQSLGGQIVLGGSDPQHYEGNFHYINLIKTGVWQIQMKGVSVGSSTLLCEDGCLALVDTGASYISGSTSSIEKLMEALGAKKRLFDYVVKCNEGPTLPDISFHLGGKEYTLTSADYVFQESYSSKKLCTLAIHAMDIPPPTGPTWALGATFIRKFYTEFDRRNNRIGFALAR
percentage of EdU-negative (hTERT-HMEC; protein concentration 0.007 µM): 4.96 ± 0.18%
percentage of EdU-negative (hTERT-HMEC; [5]): 5 ± 0.54%
percentage of EdU-negative (hTERT-HMEC; protein concentration 0.07 µM): 6.37 ± 0.25%
percentage of EdU-negative (hTERT-HMEC; [6]): 5.45 ± 0.35%
percentage of EdU-negative (MCF7; protein concentration 0.007 µM): 27.1 ± 1.6%
percentage of EdU-negative (MCF7; [5]): 24.9 ± 1.8%
percentage of EdU-negative (MCF7; protein concentration 0.07 µM): 28.5 ± 1.1%
percentage of EdU-negative (MCF7; [6]): 23.8 ± 2.5%

MVSALRGAPLIRVHSSPVSSPSVSGPRRLVSCLSSQSSALSQSGGGSTSAAGIEARSRALRRRWCPAGIMLLALVCLLSCLLPSSEAKLYGRCELARVLHDFGLDGYRGYSLADWVCLAYFTSGFNAAALDYEADGSTNNGIFQINSRRWCSNLTPNVPNVCRMYCSDLLNPNLKDTVICAMKITQEPQGLGYWEAWRHHCQGKDLTEWVDGCDF [Q8IXA5]
percentage of EdU-negative (hTERT-HMEC; [7]): 4.64 ± 0.051%
percentage of EdU-negative (hTERT-HMEC; protein concentration 0.225 µM): 10 ± 1.4%
percentage of EdU-negative (MCF7; [7]): 23.7 ± 1.4%
percentage of EdU-negative (MCF7; protein concentration 0.225 µM): 23.6 ± 2.9%

MGIQGGSVLFGLLLVLAVFCHSGHSLQCYNCPNPTADCKTAVNCSSDFDACLITKAGLQVYNKCWKFEHCNFNDVTTRLRENELTYYCCKKDLCNFNEQLENGGTSLSEKTVLLLVTPFLAAAWSLHP
percentage of EdU-negative (hTERT-HMEC; [7]): 5.4 ± 0.53%
percentage of EdU-negative (hTERT-HMEC; protein concentration 0.225 µM): 5.24 ± 1.1%
percentage of EdU-negative (MCF7; [7]): 28.2 ± 1.9%
percentage of EdU-negative (MCF7; protein concentration 0.225 µM): 25.8 ± 1%

MRWCLLLIWAQGLRQAPLASGMMTGTIETTGNISAEKGGSIILQCHLSSTTAQVTQVNWEQQDQLLAICNADLGWHISPSFKDRVAPGPGLGLTLQSLTVNDTGEYFCIYHTYPDGTYTGRIFLEVLESSVAEHGARFQIPLLGAMAATLVVICTAVIVVVALTRKKKALRIHSVEGDLRRKSAGQEEWSPSAPSPPGSCVQAEAAPAGLCGEQRGEDCAELHDYFNVLSYRSLGNCSFFTETG [Q495A1]
percentage of EdU-negative (hTERT-HMEC; [7]): 4.33 ± 0.49%
percentage of EdU-negative (hTERT-HMEC; protein concentration 0.225 µM): 5.59 ± 0.47%
percentage of EdU-negative (MCF7; [7]): 23.6 ± 1.6%
percentage of EdU-negative (MCF7; protein concentration 0.225 µM): 24.1 ± 1.1%

MVLLRVLILLLSWAAGMGGQYGNPLNKYIRHYEGLSYNVDSLHQKHQRAKRAVSHEDQFLRLDFHAHGRHFNLRMKRDTSLFSDEFKVETSNKVLDYDTSHIYTGHIYGEEGSFSHGSVIDGRFEGFIQTRGGTFYVEPAERYIKDRTLPFHSVIYHEDDINYPHKYGPQGGCADHSVFERMRKYQMTGVEEVTQIPQEEHAANGPELLRKKRTTSAEKNTCQLYIQTDHLFFKYYGTREAVIAQISSHVKAIDTIYQTTDFSGIRNISFMVKRIRINTTADEKDPTNPFRFPNIGVEKFLELNSEQNHDDYCLAYVFTDRDFDDGVLGLAWVGAPSGSSGGICEKSKLYSDGKKKSLNTGIITVQNYGSHVPPKVSHITFAHEVGHNFGSPHDSGTECTPGESKNLGQKENGNYIMYARATSGDKLNNNKFSLCSIRNISQVLEKKRNNCFVESGQPICGNGMVEQGEECDCGYSDQCKDECCFDANQPEGRKCKLKPGKQCSPSQGPCCTAQCAFKSKSEKCRDDSDCAREGICNGFTALCPASDPKPNFTDCNRHTQVCINGQCAGSICEKYGLEECTCASSDGKDDKELCHVCCMKKMDPSTCASTGSVQWSRHFSGRTITLQPGSPCNDFRGYCDVFMRCRLVDADGPLARLKKAIFSPELYENIAEWIVAHWWAVLLMGIALIMLMAGFIKICSVHTPSSNPKLPPPKPLPGTLKRRRPPQPIQQPQRQRPRESYQMGHMRR
percentage of EdU-negative (hTERT-HMEC; [8]): 6.02 ± 1.1%
percentage of EdU-negative (hTERT-HMEC; [9]): 6.36 ± 1.3%
percentage of EdU-negative (MCF7; [8]): 24.8 ± 1.8%
percentage of EdU-negative (MCF7; [9]): 26.2 ± 1.3%
